These results are taken from publication PMC12124358 (Science Advances, 2025).

This assay addresses Clr4 lysine methyltransferase (KMT) domain (residues 192 to 490) (S. pombe, UniProt O60016 192-490). Briefly: ITC.

Clr4 lysine methyltransferase (KMT) domain (residues 192 to 490), sequence (O60016 192-490): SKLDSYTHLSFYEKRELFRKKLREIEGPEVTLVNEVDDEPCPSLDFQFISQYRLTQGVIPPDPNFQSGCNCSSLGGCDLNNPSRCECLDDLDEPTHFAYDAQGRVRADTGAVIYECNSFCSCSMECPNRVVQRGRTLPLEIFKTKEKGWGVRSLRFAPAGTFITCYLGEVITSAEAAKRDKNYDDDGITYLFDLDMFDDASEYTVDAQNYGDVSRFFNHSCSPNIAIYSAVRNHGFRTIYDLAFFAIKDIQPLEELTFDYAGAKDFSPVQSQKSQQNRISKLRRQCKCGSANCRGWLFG

B1: H3(1–20)_([change])-Ub_([change]), disulfide bond-linked ubiquitinated H3 tail (other)
chain 1: ARTKQTARKSTGGCAPRKQL
chain 2: […]
B1 showed a Kd of 133 ± 13 µM.

As usually defined, the Kd is the free concentration of one partner at which half of the binding sites on the other are occupied at equilibrium, for simple one-to-one binding. Low readings indicate higher affinity, high ones lower affinity.
